In PMC3729527, “Redox-sensitive DNA binding by homodimeric Methanosarcina acetivorans MsvR is modulated by cysteine residues”:
One block for each molecule: values may come before it.

Experiments:
[1] = target: T1, MaMsvR (Methanosarcina acetivorans C2A) (UniProt Q8TQT2); assay: EMSA; settings: EMSA at room temperature, 10 nM DNA and 200 nM MsvR (50 nM DNA and 1 uM protein for 50 bp oligos), with or without 5 mM DTT; binding buffer as in cited ref 9 …
T1 sequence: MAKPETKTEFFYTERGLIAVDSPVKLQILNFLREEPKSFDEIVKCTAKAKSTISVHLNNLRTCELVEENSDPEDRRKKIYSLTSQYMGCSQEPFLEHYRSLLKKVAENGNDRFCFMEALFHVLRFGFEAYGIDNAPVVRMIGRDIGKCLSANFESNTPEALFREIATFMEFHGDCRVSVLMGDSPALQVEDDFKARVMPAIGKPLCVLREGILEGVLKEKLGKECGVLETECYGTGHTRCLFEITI

[2] = target: Methanosarcina acetivorans MsvR (methanogen specific V4R domain regulator), N-terminal Strep-tag (Methanosarcina acetivorans C2A); assay: SDS-PAGE without boiling, with immunoblot (Strep-tag antibody); 1 pmol protein in Laemmli sample buffer without or with 5 mM DTT, room temperature five minutes, not boiled; reduced and boiled sample as control; oligomers that withstand SDS, likely stabilised by disulfide bonds
[3] = target: Methanosarcina acetivorans MsvR (methanogen specific V4R domain regulator), N-terminal Strep-tag (Methanosarcina acetivorans C2A); assay: SEC; Superdex 200 HiLoad 16/600; 20 mM Tris pH 8, 10 mM MgCl2, 200 mM KCl; 0.5 ml/min; non-reduced MaMsvR (0.65 mg loaded) and reduced MaMsvR (0.84 mg, 2 mM beta-ME in the elution buffer); calibrated with ferritin, conalbumin, carbonic anhydrase, ribonuclease A
[4] = system: T2, MaMsvR C232A C232A (Methanosarcina acetivorans C2A), ORF:da4acb06; assay: EMSA; settings: EMSA at room temperature, 10 nM DNA and 200 nM MsvR (50 nM DNA and 1 uM protein for 50 bp oligos), with or without 5 mM DTT; binding buffer as in cited ref 9 …
T2 sequence: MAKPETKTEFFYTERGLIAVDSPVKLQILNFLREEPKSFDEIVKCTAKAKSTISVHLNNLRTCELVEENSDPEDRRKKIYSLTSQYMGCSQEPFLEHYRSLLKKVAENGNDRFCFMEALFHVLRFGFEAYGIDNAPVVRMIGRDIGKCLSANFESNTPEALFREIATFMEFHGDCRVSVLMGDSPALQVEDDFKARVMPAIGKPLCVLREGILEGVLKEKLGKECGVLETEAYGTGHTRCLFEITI

[5] = system: T3, MaMsvR C240A C240A (Methanosarcina acetivorans C2A), ORF:da4acb06; assay: EMSA; settings: EMSA at room temperature, 10 nM DNA and 200 nM MsvR (50 nM DNA and 1 uM protein for 50 bp oligos), with or without 5 mM DTT; binding buffer as in cited ref 9 …
T3 sequence: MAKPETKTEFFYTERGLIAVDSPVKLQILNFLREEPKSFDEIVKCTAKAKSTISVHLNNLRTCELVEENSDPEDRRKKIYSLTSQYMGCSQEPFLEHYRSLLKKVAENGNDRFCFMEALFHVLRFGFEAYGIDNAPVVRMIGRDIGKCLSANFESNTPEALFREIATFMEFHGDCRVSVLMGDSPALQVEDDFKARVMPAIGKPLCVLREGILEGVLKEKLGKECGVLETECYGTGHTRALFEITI

[6] = system: T4, MaMsvR C206A C206A (Methanosarcina acetivorans C2A), ORF:da4acb06; assay: EMSA; settings: EMSA at room temperature, 10 nM DNA and 200 nM MsvR (50 nM DNA and 1 uM protein for 50 bp oligos), with or without 5 mM DTT; binding buffer as in cited ref 9 …
T4 sequence: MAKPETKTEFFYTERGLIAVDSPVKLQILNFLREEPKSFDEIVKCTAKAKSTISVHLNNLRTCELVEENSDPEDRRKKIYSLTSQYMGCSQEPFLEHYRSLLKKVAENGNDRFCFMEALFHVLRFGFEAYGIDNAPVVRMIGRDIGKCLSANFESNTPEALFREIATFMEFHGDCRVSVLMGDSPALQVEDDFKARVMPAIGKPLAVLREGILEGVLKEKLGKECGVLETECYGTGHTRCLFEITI

MaMsvR [7] = target: T5, MaMsvR (Methanosarcina acetivorans C2A, UniProt Q8TQT2 1-246); assay: EMSA; reducing; EMSA at room temperature, 10 nM DNA and 200 nM MsvR (50 nM DNA and 1 uM protein for 50 bp oligos), with or without 5 mM DTT; binding buffer as in cited ref 9; protein stock in 20 mM Tris pH 8, 10 mM MgCl2, 200 mM KCl, glycerol; settings: protein: recombinant; tags: N-terminal Strep-tag; chain copies: 2; blunt
T5 sequence: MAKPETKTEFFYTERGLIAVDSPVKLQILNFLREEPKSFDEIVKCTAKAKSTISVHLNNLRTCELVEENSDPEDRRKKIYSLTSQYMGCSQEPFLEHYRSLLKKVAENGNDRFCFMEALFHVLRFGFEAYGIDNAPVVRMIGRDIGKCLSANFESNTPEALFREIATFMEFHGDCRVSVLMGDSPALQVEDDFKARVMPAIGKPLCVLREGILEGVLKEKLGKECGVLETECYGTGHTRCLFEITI

MaMsvR [8] = target: T5, MaMsvR; assay: EMSA; 5 mM DTT; 1 uM protein, 50 nM DNA; EMSA at room temperature, 10 nM DNA and 200 nM MsvR (50 nM DNA and 1 uM protein for 50 bp oligos), with or without 5 mM DTT; binding buffer as in cited ref 9; protein stock in 20 mM Tris pH 8, 10 mM MgCl2, 200 mM KCl, glycerol; settings: protein: recombinant; tags: N-terminal Strep-tag; chain copies: 2; blunt

Molecule: AAAGTAAGAAATTCTCTCTATATGTATGGGTTTATGATATCTCAGACCTGAAAATATGCGGATAAAATTCGGATAAAACAGGATTTCCTGATTTGGAGGGAAAGTAATGAAGTGTTACGAATGTGCCAGAGAGGGCAAAGATACGGATGCTGTGGGAATTTGTATCGTATGTGGAAGAGGAGTTTGCAAAGAACACCTTATCCATGAGGAAACACCTGCGTGGGAAGGCGACTATCCTAT (double strand) [Ma P3734]
binding [1]: no binding

Molecule: GCAGATCTCGCAGCGGTACTTTTCTCCTTTTCTGGATACAGCCATAGCTACTTCACCTCCTTGCTTCTGAATTTAAATACCTCAAAACTTTCAAGCGGGCTTTCCCCTTCCCTGTAATCCCGAAATTACTCCGGGTTTCACCAACACTCATACATGTTAACCATTCTTTGTATATAATTGTAAGGACTTTTTAAAAAGTAACATAAATTTTTTCCTTCTATTCGGGTATGTCTTA (double strand) [Ma P4664]
binding [1]: no binding

Molecule: AGATCCCCCAGCGTCTCCAGAACTTGCGGAGTGAATCCCATTTTTTCTCCCATACTCTCCAGTATCTCTTCATGCTCTGTCATTTTTCCAGTCTCCTTACTCCGATAACTACCAGCTGTTGATATTTATATTGGTTATTTATATTTATTATTAATTAATATTTCTCAAATCTGTGTTCAGGCCTTTTACTTCCTCATTCCTGTCCAAAGGCCCTTTATTAAAGTCCGCATCCTTTGTTATGGGCTGCACA (double strand) [Ma P3736]
binding [1]: no binding

stoichiometry N [2]: 2
stoichiometry N [3]: 2
Molecule: Methanosarcina acetivorans MsvR (methanogen specific V4R domain regulator), N-terminal Strep-tag (natural protein)

Molecule: TCAGCTTTTCTTACGTTTGACCGTTATAGGAATAATTTCGGCCTTCAACTCTGCAATGGCTACACCCAGGGGGTCCAGCCGCCCGTCATCATCAACCAGGACAGGAGCCCCCATTGCTATCTGCAATGCTCTTGCACCTACAATTCGTGCACGCTCGAACCGGGTATACTTTT (double strand) [Ma rpoK]
binding [1]: no binding

Molecule: AGGCTTTACAAAGTAAATAAAGGGGAGAAAAAGGGTTAAAACCTGAATAAGAAGTAAAGAAAACTCCGATATAAGCAAAAGTATTTATAGAATCCGATTACAAAATCAGAGGTTAGAAGGAATTTATATTAACAAAAAGAAGCTTGGAGGATAATATGGCAAAAGTTATACCATTTGCACCAATCGAACGCCTGATAAGGACGGCTGGTGCCCACAGAGTAAGTGAGA (double strand) [Ma PhmaA]
binding [1]: no binding

Molecule: TTACTTTGCCGTTTCCCCCCATTTTCTTTATATCTTTTTATATCTGTATTATTATATTTCAAACATGATTATTCGTAGTCACGCGAACGTTTTATATATTCAAAACGCAACTTATCTAAAGATATTATGGCAAAACCTGAGACCAAAACTGAATTCTTTTATACCGAAAGAGGGCTCATAGCCGTAGACAGCCCTGTTAAACTCCAGATCCTGAATTTTCTCAGGG (double strand) [Ma PmsvR (PCR)]
binding [4]: binds
binding [5]: binds
binding [6]: binds
binding [1]: binds

Molecule: CCGAAAACATTCCTGGCAATCTCCGGGATATTATATATTTCCATACTTTTCCTCCAACTCTCTTCTGAATCATTTACTCTCAAAATAAAATGTACCAAAATACGGTACACAGAAATCTTTAACTGTTCCCCACAAGCTCAAAACAGTATTATGGTGTAGCTATGTTAATTCGATATATTTATTATATTGATTAAATATTTTTGATAAGAACCTCTTTCTATTTTTACCTGTTCGTTCTGTCAGA (double strand) [Ma P3381]
binding [1]: no binding

B1: Ma PmsvR flanks replaced (dsDNA)
DNA 1: GAGGGAATGAAATCCTCTTCGTAGTCACGCGAAAATGGACAAGTCTGATT
DNA 2: AATCAGACTTGTCCATTTTCGCGTGACTACGAAGAGGATTTCATTCCCTC
binding result (MaMsvR [7]): no binding

B2: Ma PmsvR 1 bp insertion between boxes (dsDNA)
DNA 1: TATTTCAAACATGATTATTCGTAGTTCACGCGAACGTTTTATATATTCAAA
DNA 2: TTTGAATATATAAAACGTTCGCGTGAACTACGAATAATCATGTTTGAAATA
binding result (MaMsvR [7]): binds

B3: Ma PmsvR 1 bp deletion between boxes (dsDNA)
DNA 1: TATTTCAAACATGATTATTCGTAGCACGCGAACGTTTTATATATTCAAA
DNA 2: TTTGAATATATAAAACGTTCGCGTGCTACGAATAATCATGTTTGAAATA
binding result (MaMsvR [7]): binds

B4: Ma PmsvR 50 bp box A mutant (dsDNA)
DNA 1: TATTTCAAACATGATTAGGGGTAGTCACGCGAACGTTTTATATATTCAAA
DNA 2: TTTGAATATATAAAACGTTCGCGTGACTACCCCTAATCATGTTTGAAATA
binding result (MaMsvR [8]): no binding

B5: Ma PmsvR 50 bp box B mutant (dsDNA)
DNA 1: TATTTCAAACATGATTATTCGTAGTCACGGGGGCGTTTTATATATTCAAA
DNA 2: TTTGAATATATAAAACGCCCCCGTGACTACGAATAATCATGTTTGAAATA
binding result (MaMsvR [8]): no binding
